Values of other authors as cited in publication PMC6047922.

Molecular target: ttRNH* Icore (Thermus thermophilus) (UniProt Q72IE1)
Test: analytical ultracentrifugation

ttRNH* Icore (from UniProt Q72IE1)
Kd: 150 µM
